# Experimental data published in publication PMC5803617 (Journal of Cachexia, Sarcopenia and Muscle, 2017).
# What was measured:
# [1] = biological target: GST-MuRF1/telethonin complexes, cross-linked (rat) (UniProt Q91Z63); assay: SPR
# [2] = biological target: MuRF1/telethonin complex co-expressed in yeast from pBridge::MuRF1/telethonin (rat) (UniProt Q91Z63); assay: yeast three-hybrid
# GST-MuRF1 = GST-MuRF1 (rat, UniProt Q91Z63 1-351); assay: SPR
# GST-MuRF1, sequence (Q91Z63 whole entry): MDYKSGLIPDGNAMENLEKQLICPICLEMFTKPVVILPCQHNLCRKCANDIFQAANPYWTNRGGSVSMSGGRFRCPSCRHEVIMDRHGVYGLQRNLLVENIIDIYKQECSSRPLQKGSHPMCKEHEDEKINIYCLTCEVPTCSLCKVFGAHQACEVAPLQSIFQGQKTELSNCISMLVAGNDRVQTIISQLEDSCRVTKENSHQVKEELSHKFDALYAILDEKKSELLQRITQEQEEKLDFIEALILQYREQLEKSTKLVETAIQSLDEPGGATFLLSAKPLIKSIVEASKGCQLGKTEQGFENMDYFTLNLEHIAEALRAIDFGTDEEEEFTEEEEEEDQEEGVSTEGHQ
# MuRF1/telethonin complex co-expressed in yeast from pBridge::MuRF1/telethonin (rat), sequence (Q91Z63 whole entry, looked up, one chain of several): as the sequence (Q91Z63 whole entry) above
# UBE2E1, untagged recombinant, sequence (P52482 whole entry): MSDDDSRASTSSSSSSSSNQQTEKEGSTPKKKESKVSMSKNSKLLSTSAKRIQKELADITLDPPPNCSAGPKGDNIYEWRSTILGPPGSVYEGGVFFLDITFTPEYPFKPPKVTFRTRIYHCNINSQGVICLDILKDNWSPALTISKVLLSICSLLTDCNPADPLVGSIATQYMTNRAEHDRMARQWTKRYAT
# UBE2E1 fused to the activation domain of GAL4, sequence (P52482 whole entry, the tested form may be a part): as the sequence (P52482 whole entry) above
Kd [1] [nM],percent positive clones [2] [%],ka of the E2G1 dimer (heterogeneous analyte model) (GST-MuRF1) [M⁻¹ s⁻¹],ka of the E2G1 monomer (heterogeneous analyte model) (GST-MuRF1) [M⁻¹ s⁻¹],Molecule
5,,,,"UBE2E1, untagged recombinant (from UniProt P52482 1-193) (enzyme)"
,93,,,UBE2E1 fused to the activation domain of GAL4 (from UniProt P52482 1-193) (enzyme)
,58,~300,~4000,"UBE2G1, untagged recombinant (enzyme, human, UniProt P62253 1-170, looked up) MTELQSALLLRRQLAELNKNPVEGFSAGLIDDNDLYRWEVLIIGPPDTLYEGGVFKAHLTFPKDYPLRPPKMKFITEIWHPNVDKNGDVCISILHEPGEDKYGYEKPEERWLPIHTVETIMISVISMLADPNGDSPANVDAAKEWREDRNGEFKRKVARCVRKSQETAFE"
